According to patent US11607466B2, “Tumor and immune cell imaging based on PD-L1 expression” (The Johns Hopkins University, priority 2016, dated 2023):
pKd: −log10 of the molar value.

Legend:
[1] = target: T1, PD-L1 in H226 xenografts (Homo sapiens, UniProt Q9NZQ7); experiment: Tumor PD-L1 engagement by AtzMab measured with [64Cu]WL12, H226 xenografts; assay type: in vivo; settings: AtzMab 20 mg/kg for 24 h, vs saline controls
T1 construct: Each of which naturally expresses PD-L1; endogenous in cells; host or cells: HCC827 and H226 NSCLC cells; as xenografts in NOD scid gamma mice for the in vivo units
Excerpt: 3.3.2 Quantifying Tumor PD-L1 engagement by AtzMab. To evaluate PD-L1 engagement by the therapeutic mAbs at the tumor non-invasively in vivo, NSCLC xenograft models were studied. Those models were selected because nearly 50% of NSCLCs are PD-L1-positive and PD-L1 IHC is used as a predictive biomarker in patients with NSCLC undergoing immune checkpoint therapy (Mansfield, et al., 2016). […] There is a clear reduction in the accumulation of radioactivity in tumors of AtzMab-treated mice, indicating reduced levels of available PD-L1 sites, compared to treated controls (FIG. 35A and FIG. 35B). […] PD-L1 expression levels were confirmed by PD-L1 IHC of the xenografts (FIG. 35C and FIG. 35F).

[2] = target: T2, PD-L1 in A549-iPDL1 tumors (Homo sapiens, UniProt Q9NZQ7); experiment: [64Cu]WL12 PET and biodistribution in A549-iPDL1 and A549 xenografts; assay type: in vivo; settings: AtzMab 20 mg/kg
T2 construct: expressed in transfected cells; host or cells: A549 NSCLC cells, lentiviral pINDUCER20, G418-selected, doxycycline-induced; as xenografts for the in vivo unit
Excerpt: To do so, an A549 NSCLC cell line with doxycycline-inducible PD-L1 expression (A549-iPD-L1) was generated. A549 is a Kras G12S lung adenocarcinoma cell line that expresses low PD-L1 at baseline. It has been transduced with PD-L1 in the all-in-one lentivirus pINDUCER20 vector (Meerbrey, et al., 2011), selected with G418, confirmed for PD-L1 induction by flow cytometry (FIG. 37A) and used for in vitro and in vivo studies. Cy5-PD-L1-mAbs binding to doxycycline-treated A549-iPDL1 cells was blocked by WL12 validating the specificity of WL12 (FIG. 37B). […] Accordingly, it is expected that PET will play a key role in quantifying dynamic changes in PD-L1 expression within the standard clinical work flow, providing a novel way to inform therapy decisions.

[3] = target: human PD-L1 (Homo sapiens, UniProt Q9NZQ7); settings: read-out: dissociation constant (Kd), human PD-L1; cited from earlier work
Sequence of human PD-L1 (Q9NZQ7 19-290): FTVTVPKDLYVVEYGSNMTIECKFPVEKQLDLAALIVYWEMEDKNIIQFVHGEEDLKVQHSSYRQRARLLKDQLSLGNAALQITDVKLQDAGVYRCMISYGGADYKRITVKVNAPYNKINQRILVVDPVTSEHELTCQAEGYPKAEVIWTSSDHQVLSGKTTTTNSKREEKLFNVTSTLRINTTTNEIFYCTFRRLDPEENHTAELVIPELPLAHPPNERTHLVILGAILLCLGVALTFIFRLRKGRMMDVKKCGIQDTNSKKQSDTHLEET

T1 sequence (Q9NZQ7 19-290): as above
T2 sequence (Q9NZQ7 19-290): as above

For “AtzMab: therapeutic PD-L1 antibody Atezolizumab”, the “reduction in [64Cu]WL12 % ID/g, H226 xenografts” value [1] is listed as 34%, the “decrease of [64Cu]WL12 uptake in A549-iPDL1 tumors” value [2] is listed as greater than 75% and the pKd [3] is listed as 9.37.
